Assays:
Format in all cases: biochemical, Z. mays
[1] = test system: 4-hydroxyphenylpyruvate dioxygenase (HPPD); assay: Estimate of kcat from initial rate at saturating hydroxyphenylpyruvate without inhibitor (ON rate ratio assay); settings: Table 5; single substitutions in Round 7 variant 9070 (SEQ ID NO:2); estimate from initial rate at saturating hydroxyphenylpyruvate without inhibitor
Outline: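 kcat was estimated from the initial reaction rate with known enzyme level (60 or 120 nM HPPD). Hydroxyphenylpyruvate was at a saturating 100 μM, with no inhibitor present.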

[2] = test system: 4-hydroxyphenylpyruvate dioxygenase (HPPD); assay: OFF rate ratio: release of inhibitor from pre-formed enzyme-inhibitor complex; settings: Table 5; tembotrione
Outline: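 Inhibitor release from pre-formed complex (enzyme 7.2 μM, inhibitor 8 μM, 1 h RT) tracked as accelerating HPPD activity at 320 nm over 12 min, coupled via 50 nM HGD with 100 μM HPP at pH 7. OFF rate ratio: steady-state velocity relative to uninhibited initial velocity.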

[3] = test system: 4-hydroxyphenylpyruvate dioxygenase (HPPD); assay: HPPD activity coupled assay with HGD; substrate saturation kinetic parameters (kcat, KM); settings: Table 6; for kcat: single substitutions in SEQ ID NO:2
Outline: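 Coupled continuous assay: His-tagged HPPD (5 to 240 nM, E. coli-expressed, Ni-NTA-purified) with 50 nM P. aeruginosa HGD in 25 mM Hepes pH 7, 2 mM ascorbate, 10 μM FeSO4; maleylacetoacetate followed at 320 nm. KM and Vmax from Lineweaver-Burke fits over 3.33–100 μM HPP.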

[4] = test system: 4-hydroxyphenylpyruvate dioxygenase (HPPD); assay: ON rate ratio: HPPD reaction rate with vs without inhibitor in the 70 to 90 second interval; settings: Table 5; tembotrione
Outline: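 Indicator of inhibitor on-rate: reaction velocity in the 70 to 90 second window with 4 μM inhibitor divided by that without. Reactions contained 100 μM HPP and 60 or 120 nM HPPD; slower binding gives a larger ratio.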

[5] = test system: 4-hydroxyphenylpyruvate dioxygenase (HPPD); assay: Insensitivity parameter (ON × OFF) and trait fitness (ON × OFF × kcat/KM or × kcat); settings: for ON × OFF × kcat, Value / ON × OFF × kcat, Fold vs wt / ON × OFF, fold vs wt / ON × OFF (parameters with tembotrione): Table 5, tembotrione; for ON × OFF × kcat, Fold vs wt / ON × OFF, fold vs wt: fold vs maize wild type HPPD; for ON × OFF (parameters with tembotrione): insensitivity parameter
Outline: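 Trait fitness combines catalysis and insensitivity as kcat/KM × ON rate ratio × OFF rate ratio. The insensitivity parameter is the product of ON and OFF rate ratios, used in place of KD because the ON rate ratio is inverse.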

[6] = DKN (diketonitrile form of isoxaflutole)
[7] = DKN (isoxaflutole diketonitrile)

Row | Molecule | OFF ratio (parameters with tembotrione) [2] | ON ratio (parameters with tembotrione) [4] | Insensitivity parameter, ON × OFF [5, 6] | Insensitivity parameter, ON × OFF ([5]; Mesotrione, Table 6) | Insensitivity parameter, ON × OFF ([5]; Sulcotrione) | ON × OFF, fold vs wt [5] | ON × OFF (parameters with tembotrione) [5] | Insensitivity parameter, ON × OFF ([5]; Tembotrione) | Insensitivity parameter, ON × OFF ([5]; Topramezon) | kcat [1] [s⁻¹] | Km [3] [µM] | kcat [3] [s⁻¹] | ON × OFF × kcat/km fold vs Round 7, variant 9070 [5, 7] | ON × OFF × kcat/km fold vs Round 7, variant 9070 ([5]; Sulco (sulcotrione)) | ON × OFF × kcat, Value [5] | ON × OFF × kcat, Fold vs wt [5] | ON × OFF × kcat/km fold vs Round 7, variant 9070 ([5]; Topra (topramezone)) | ON × OFF × kcat/km fold vs Round 7, variant 9070 ([5]; meso (mesotrione)) | ON × OFF × kcat/km fold vs Round 7, variant 9070 ([5]; tembo (tembotrione))
1 | 376W: single substitution 376W in SEQ ID NO:2 (protein, Zea mays variant form created by artificial means.) MGPTPTATAAGAAVAAASAAEQAAFRLVGHRNFVRFNPRSDRFQTLAFHHVELWCADAASAAGRFSFALGVPLAARSDLSTGNSAHASLLLRSGSLSLLFTAPYAHGADAATAALPSFSAAAARRFAADHGLAVRAVALRVADAEDAFRASVAAGARPAFGPVDLGRGFRLAEVELYGDVVLRYVSYPDGAAGEPFLPGFEGVASPGAADYGLSRFDHIVGNVPELAPAAAYMAGFTGFHEFAEFTTEDVGTTESGLNSMALANNSENVLLPLNEPVHGTKRRSQIQTFLDHHGGPGVQHIALASDDVLRTLREMRARSAMGGFEFLPPPLSDYYDGVRRCAGDVLTEAQINECQELGVMVDRDDQGVLLQIFTKWVGDRPTFFLEIIQRIGCMEKDEKGQEYQKGGCGGFGKGNFGQLFKSIEDYEKSLEAKQAAAAATAQGS | 0.34 | 0.68 | 0.37 | 0.39 | 0.16 | 46.0 | 0.23 | 0.31 | 0.32 | 0.385 | 5.51 | 0.602 |  |  | 5.42 | 5.07 |  |  | 
2 | 360L: single substitution 360L in SEQ ID NO:2 (protein, Zea mays variant form created by artificial means.) MGPTPTATAAGAAVAAASAAEQAAFRLVGHRNFVRFNPRSDRFQTLAFHHVELWCADAASAAGRFSFALGVPLAARSDLSTGNSAHASLLLRSGSLSLLFTAPYAHGADAATAALPSFSAAAARRFAADHGLAVRAVALRVADAEDAFRASVAAGARPAFGPVDLGRGFRLAEVELYGDVVLRYVSYPDGAAGEPFLPGFEGVASPGAADYGLSRFDHIVGNVPELAPAAAYMAGFTGFHEFAEFTTEDVGTTESGLNSMALANNSENVLLPLNEPVHGTKRRSQIQTFLDHHGGPGVQHIALASDDVLRTLREMRARSAMGGFEFLPPPLSDYYDGVRRCAGDVLTEAQINECQELGVLVDRDDQGVLLQIFTKPVGDRPTFFLEIIQRIGCMEKDEKGQEYQKGGCGGFGKGNFGQLFKSIEDYEKSLEAKQAAAAATAQGS | 0.22 | 0.77 | 0.34 | 0.51 | 0.63 | 32.6 | 0.17 | 0.25 | 0.32 | 0.442 | 1.71 | 0.543 |  |  | 4.41 | 4.12 |  |  | 
3 | 385V: single substitution L385V in SEQ ID NO:2 (protein, Zea mays variant form created by artificial means.) MGPTPTATAAGAAVAAASAAEQAAFRLVGHRNFVRFNPRSDRFQTLAFHHVELWCADAASAAGRFSFALGVPLAARSDLSTGNSAHASLLLRSGSLSLLFTAPYAHGADAATAALPSFSAAAARRFAADHGLAVRAVALRVADAEDAFRASVAAGARPAFGPVDLGRGFRLAEVELYGDVVLRYVSYPDGAAGEPFLPGFEGVASPGAADYGLSRFDHIVGNVPELAPAAAYMAGFTGFHEFAEFTTEDVGTTESGLNSMALANNSENVLLPLNEPVHGTKRRSQIQTFLDHHGGPGVQHIALASDDVLRTLREMRARSAMGGFEFLPPPLSDYYDGVRRCAGDVLTEAQINECQELGVMVDRDDQGVLLQIFTKPVGDRPTFFVEIIQRIGCMEKDEKGQEYQKGGCGGFGKGNFGQLFKSIEDYEKSLEAKQAAAAATAQGS | 0.33 | 0.75 | 0.33 | 0.65 | 0.78 | 48.2 | 0.25 | 0.34 | 0.49 | 0.357 | 1.91 | 0.505 | 1.1 | 1.0 | 5.26 | 4.92 | 1.3 | 1.0 | 1.4

Second part, led by results:

Row | OFF ratio (parameters with tembotrione) [2] | ON ratio (parameters with tembotrione) [4] | Insensitivity parameter, ON × OFF [5, 6] | Insensitivity parameter, ON × OFF ([5]; Mesotrione, Table 6) | Insensitivity parameter, ON × OFF ([5]; Sulcotrione) | ON × OFF, fold vs wt [5] | ON × OFF (parameters with tembotrione) [5] | Insensitivity parameter, ON × OFF ([5]; Tembotrione) | Insensitivity parameter, ON × OFF ([5]; Topramezon) | Molecule | kcat [1] [s⁻¹] | Km [3] [µM] | kcat [3] [s⁻¹] | ON × OFF × kcat/km fold vs Round 7, variant 9070 [5, 7] | ON × OFF × kcat/km fold vs Round 7, variant 9070 ([5]; Sulco (sulcotrione)) | ON × OFF × kcat, Value [5] | ON × OFF × kcat, Fold vs wt [5] | ON × OFF × kcat/km fold vs Round 7, variant 9070 ([5]; Topra (topramezone)) | ON × OFF × kcat/km fold vs Round 7, variant 9070 ([5]; meso (mesotrione)) | ON × OFF × kcat/km fold vs Round 7, variant 9070 ([5]; tembo (tembotrione))
4 | 0.27 | 0.74 | 0.39 | 0.73 | 0.74 | 38.4 | 0.20 | 0.33 | 0.39 | 417Q: single substitution G417Q in SEQ ID NO:2 (protein, Zea mays variant form created by artificial means.) MGPTPTATAAGAAVAAASAAEQAAFRLVGHRNFVRFNPRSDRFQTLAFHHVELWCADAASAAGRFSFALGVPLAARSDLSTGNSAHASLLLRSGSLSLLFTAPYAHGADAATAALPSFSAAAARRFAADHGLAVRAVALRVADAEDAFRASVAAGARPAFGPVDLGRGFRLAEVELYGDVVLRYVSYPDGAAGEPFLPGFEGVASPGAADYGLSRFDHIVGNVPELAPAAAYMAGFTGFHEFAEFTTEDVGTTESGLNSMALANNSENVLLPLNEPVHGTKRRSQIQTFLDHHGGPGVQHIALASDDVLRTLREMRARSAMGGFEFLPPPLSDYYDGVRRCAGDVLTEAQINECQELGVMVDRDDQGVLLQIFTKPVGDRPTFFLEIIQRIGCMEKDEKGQEYQKGGCGGFGKGNFQQLFKSIEDYEKSLEAKQAAAAATAQGS | 0.343 | 1.56 | 0.558 | 1.0 | 1.2 | 4.04 | 3.77 | 1.4 | 1.5 | 1.5
5 | 0.22 | 0.75 | 0.29 | 0.45 | 0.58 | 32.4 | 0.17 | 0.20 | 0.27 | 390N: single substitution 390N in SEQ ID NO:2 (protein, Zea mays variant form created by artificial means.) MGPTPTATAAGAAVAAASAAEQAAFRLVGHRNFVRFNPRSDRFQTLAFHHVELWCADAASAAGRFSFALGVPLAARSDLSTGNSAHASLLLRSGSLSLLFTAPYAHGADAATAALPSFSAAAARRFAADHGLAVRAVALRVADAEDAFRASVAAGARPAFGPVDLGRGFRLAEVELYGDVVLRYVSYPDGAAGEPFLPGFEGVASPGAADYGLSRFDHIVGNVPELAPAAAYMAGFTGFHEFAEFTTEDVGTTESGLNSMALANNSENVLLPLNEPVHGTKRRSQIQTFLDHHGGPGVQHIALASDDVLRTLREMRARSAMGGFEFLPPPLSDYYDGVRRCAGDVLTEAQINECQELGVMVDRDDQGVLLQIFTKPVGDRPTFFLEIIQNIGCMEKDEKGQEYQKGGCGGFGKGNFGQLFKSIEDYEKSLEAKQAAAAATAQGS | 0.505 | 2.86 | 0.837 |  |  | 5.00 | 4.67 |  |  | 
